Results: patent US20250297026A1 (PETMEDIX, published 2025)
Numbering of substitutions follows the chain as printed.

B1: PMX115 mAb (antibody, V domains shown)
VH: EMQLVESGGALVKPGGSLRLSCVASGFTFRRYHMSWVRQAPGQGLQWVAYIDSDGSPTSYGDSVKGRFTISRDNAKNTLFLQMNSLRVDDTAVYYCTTLDYWGRGTLVTVSS
VL: SYVLTQVPSKSVTLKQPAHITCGGDNIGGKSVHWYQQKLGQAPLLIIYYDTRRPTGIPERFSGANSGNTATLTISRALAEDEADYYCQVWDSSGNVFGGGTHLTVI
B2: PMX075 (antibody, V domains shown)
VH: EVQLVESGGDLVKPGGSLRLSCVASGITFSRYHMSWVRQAPGKGLQWVAFINTGRSSTNYADAVAGRFTISRDNAKNTLYLQMNGLTVEDTAVYYCSTLDYWGQGTLVTVSS
VL: B1 VL with V7L, G29S, L44I, T51N, R52N, R76G, Q88H, G94V, I106L
B3: PMX066 (antibody, V domains shown)
VH: AVQLVESGGDLVKPGGSLRLSCVASGITFSRYHMSWVRQAPGKGLQWVAYINSGGSATSYTDAVKGRFSISRDNGKNTLYLQMNSLRVEDSAVYYCTTLDLWGQGTLVTVSS
VL: B1 VL with V7L, S11N, G29S, L44V, T51S, S75N, R76G, V89M, G94A, I106L
B4: PMX072 (antibody, V domains shown)
VH: B2 VH with I27F, G85S, T87R, V88A
VL: B1 VL with V7L, S11N, G29S, L44V, T51S, R52S, R76G, G94A, I106L
B5: PMX074 (antibody, V domains shown)
VH: EVQLVESGGDLVKPGGSLRLSCVASGFTFSRYYMTWVRQAPGKGLQWVAYINSDRRSTTYADAVKGRFTISRDNAKNTLYLQMNSLRAEDTAVYYCTTLEYWGQGTLVTVSS
VL: B1 VL with V7L, S11N, G29S, L44V, T51S, S75N, R76G, G94A, I106L
B6: PMX076 (antibody, V domains shown)
VH: EVQLVESGGDLVKPGGSLRLSCVASGITFSRYYMNWVRQAPGKGLQWVAYIDSGGSPTTYADAVKGRFTISRDNAKKALYLQMNSLRAEDTAVYYCTSFDYWGQGTLVTVSS
VL: B1 VL with V7L, S11N, G29S, L44V, T51S, R52S, R76G, Y86F, G94A, I106L
B7: PMX078 (antibody, V domains shown)
VH: EVQLVESGGDLVKPGGSLRLSCVASGLTFSRYHMSWIRQAPGKGLQWVAYISSGGSSTNYAGSVKGRFTVSRDNAKNTLYLQMNSLRAEDTAVYYCTSLDYWGQGTLVTVSS
VL: B1 VL with V7L, S11N, G29S, L44V, T51S, R76G, G94D, I106L
B8: PMX080 (antibody, V domains shown)
VH: B6 VH with I27L, T59N, K77N, A78T, T97S
VL: B1 VL with L4V, V7L, K10N, S11T, G29S, L44V, T51S, R76G, G94A, I106L
B9: PMX081 (antibody, V domains shown)
VH: EVQLVQSGGDLVKPGGSLRLSCVASGYTFTRYHMSWVRQAPGKGLQWVAFINSDGTGITYGDAVKGRFTISRDNAKNTLYLQMNSLRAEDTAIYYCTTFDSWGQGTLVTVSS
VL: B1 VL with V7L, S11N, G29S, L44I, T51S, R76G, I106L
B10: PMX069 (antibody, V domains shown)
VH: B1 VH
VL: B1 VL with S11N
B11: PMX071 (antibody, V domains shown)
VH: B6 VH with Q3H, S30N, A40T, K77N, A78T
VL: B1 VL with V7L, S11N, G29S, L44I, R52S, R76G, G94A, I106L
B12: PMX003 mAb (antibody, V domains shown)
VH: EVQLVESGGDLVKPGGSLRLSCVASGITFSRYHMSWVRQAPGKGLQWVAYINSGGSSTSYPDAVKGRFTISRDNAKNTLYLQMDSLRAEDTALYYCTTFDYWGQGTLVTVSS
VL: SYVLTQLPSKNVTLKQPAHITCGGDNIGSKSVHWYQQKLGQAPVLIIYYDSRRPTGIPERFSGANSGNTATLTISGALAEDEADYYCQVWDSSANVFGGGTHLTVLG
B13: PMX004 mAb (antibody, V domains shown)
VH: EVQLVESGGELVKPGGSLRVSCVASGITFSRYHMSWVRQAPGKGLQWVAFINTDRSSPKYADSVKGRFTISRDNAKNTLYLQMNSLRAEDTAIYYCTSFDYWGQGTLVTVSS
VL: B12 VL with R52S
notes: Fully canine mAb with dog IGGB and dog IGLC5 constant regions; Expressed in CHO cells
B14: PMX001 mAb (antibody, V domains shown)
VH: B12 VH with I27F, R31S, S59T, P61A, N77K, D84N, L93V, T97S
VL: B12 VL with K10R, S51T, A94G
notes: Fully canine mAb; Expressed in CHO cells
B15: PMX067 (antibody, V domains shown)
VH: B12 VH with V2I, I27F, S53T, S57N, S59N, P61A, D84N, L93V, F99L, Y101S
VL: B1 VL with V7L, S9F, S11N, G29S, L44V, T51S, R76G, G94V, I106L
B16: PMX002 mAb (antibody, V domains shown)
VH: EVQLVESGGDLVKPGGSLRLSCVASGIIFSNYHMSWVRQVPGKGLQWVAYINSGGSTINYADGVKGRFTISRDNAKNSLYLQMNSLRGEDTAVYYCTTYDSWGQGTLVTVSS
VL: B12 VL with R52S, A94V
notes: as for B13
B17: PMX005 mAb (antibody, V domains shown)
VH: B12 VH with I27F, S57D, T58S, S59D, P61A, D84N, L93V, T98S, F99L
VL: B12 VL with R52S, S92R, A94G
notes: as for B13
B18: PMX079 (antibody, V domains shown)
VH: B12 VH with I27L, Y50F, G55R, S57D, S59T, P61A, D84N, L93V
VL: B1 VL with V7L, S11N, G29S, L44A, T51S, R52S, R76G, G94A, I106L
B19: PMX077 (antibody, V domains shown)
VH: B6 VH with D52N, K77N, A78T
VL: B1 VL with V7L, S11N, G29S, L44I, R52S, R76G, G94A, I106L
B20: PMX073 (antibody, V domains shown)
VH: B6 VH with I27F, Y50F, D52T, P57S, T59S, A61G, K77N, A78T
VL: B1 VL with V7L, S11N, G29S, L44V, D50A, T51S, R52S, R76G, G94A, I106L

What was measured:
canine CD20 [1] = target: T1, canine CD20 (UniProt Q3C2E2 1-297); test: flow cytometry, cCD20-expressing MDCK II cells; apparent Kd (EC50 of binding)
T1 chain: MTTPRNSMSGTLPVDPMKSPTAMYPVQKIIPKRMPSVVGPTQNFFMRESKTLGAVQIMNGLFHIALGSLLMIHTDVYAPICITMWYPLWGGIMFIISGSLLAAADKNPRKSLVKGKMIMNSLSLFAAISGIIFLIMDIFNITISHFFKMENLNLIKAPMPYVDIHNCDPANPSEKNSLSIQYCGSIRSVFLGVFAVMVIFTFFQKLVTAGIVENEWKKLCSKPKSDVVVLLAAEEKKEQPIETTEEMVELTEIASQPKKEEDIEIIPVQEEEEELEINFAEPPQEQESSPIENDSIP

canine CD20 [2] = target: T2, canine CD20 (canine, UniProt Q3C2E2 1-297); test: cell-based or functional assay
T2 chain: T1 chain

canine CD20 [3] = target: T2, canine CD20; test: flow cytometry on cCD20-expressing MDCK II cells, 10 ug/ml antibody, FITC anti-canine IgG (FIG. 3A)
Method: FIG. 3. Binding assessment of anti-canine CD20 mAbs using flow cytometry. PMX001, PMX002, PMX003, PMX004, PMX005, 1 E4-cIGGB, 4E1-7-clGGB (see A) and PMX006, PMX007, PMX008, PMX009, PMX010, PMX011 (see B) and PMX003, PMX066, PMX067, PMX069, PMX070, PMX071, PMX072, PMX073, PMX074, PMX075, PMX076, PMX077, PMX078, PMX079, PMX080, PMX081, 1E4-cIGGB, 4E1-7-clGGB (see C) were applied to cCD20-expressing MDCK II cells at 10 μg/ml. Rituximab-clGGB (grey shadow) was used as the isotype control and presented in each plot. (D) Affinity determination of PMX003, PMX115 and PMX070 mAbs. Binding of 1:2 serially diluted antibodies to cCD20-expressing MDCK II cells was assessed in a binding assay and the mean values of the fluorophore signal was determined. The plot of mean fluorescence intensity (MFI) versus concentration was used to determine EC50 of binding, using non-linear regression, which is the apparent Kd of antibody binding to cell surface expressed canine CD20.
HEK293 cells or MDCK II cells were stably transfected with a vector encoding the full length of canine CD20 cDNA. Binding of antibodies to these cells were assessed using flow cytometry. […] Cells incubated with anti-canine IgG FITC secondary antibody and without primary anti-canine CD20 antibody, or with isotype control primary antibody, were used as negative controls. The data were acquired on either a Beckman Coulter CytoFLEX or a BD Accuri C6 Plus flow cytometer and analysed using FlowJo software. […] Graphs using mean fluorescence intensity (MFI) values of the FITC channel vs concentration of antibody were plotted in GraphPad Prism (FIG. 3D).

Row | Binder | Kd (canine CD20 [1]) [nM] | ADCC EC50 (canine CD20 [2]) [nM] | ADCC Maximum killing (%) (canine CD20 [2]) | CDC EC50 (canine CD20 [2]) [nM] | CDC Maximum killing (%) (canine CD20 [2]) | binding result (canine CD20 [3])
1 | B1 | 0.8 |  |  |  |  | 
2 | B2 |  | 0.14 | 46 | 6.02 | 98.9 | 
3 | B3 |  | 0.15 | 47 | 12.1 | 98.5 | 
4 | B4 |  | 0.18 | 50 | 19.6 | 91.6 | 
5 | B5 |  | 0.12 | 51 | 6.8 | 98.9 | 
6 | B6 |  | 0.14 | 49 | 7.76 | 98.3 | 
7 | B7 |  | 0.22 | 40 | 9.08 | 98.8 | 
8 | B8 |  | 0.13 | 50 | 21.9 | 96.2 | 
9 | B9 |  | 0.16 | 51 | 10.6 | 98.5 | 
10 | B10 |  | 0.09 | 38 | 7.6 | 98.2 | 
11 | B11 |  | 0.15 | 41 | 28.9 | 94.3 | 
12 | B12 | 1.7 | 0.89 | 34 | 25 | 90.4 | 
13 | B13 |  |  |  |  |  | binds
14 | B14 |  |  |  |  |  | binds
15 | B15 |  | 0.13 | 50 | 11.3 | 97.8 | 
16 | B16 |  |  |  |  |  | binds
17 | B17 |  |  |  |  |  | binds
18 | B18 |  | 0.12 | 52 | 16.4 | 96.7 | 
19 | B19 |  | 0.13 | 42 | 9.84 | 98.7 | 
20 | B20 |  | 0.21 | 48 | 11.1 | 96.3 | 
